Substrate: O=C(O)[C@@H]1CCC=N1
Test: purified protein
Assay type: biochemical, Geobacter sulfurreducens
Details: GSALDH site; NAD+ fixed at saturating concentration; L-P5C 0-3.5 mM

Row | Protein | Km [µM] | kcat [s⁻¹]
1 | GsPutA (Geobacter sulfurreducens PCA) (protein) MLNSELNTKIVNRGKEFFGSISGEKPSLFNKGAWMGKAMDWSMQNEQFKIQMFRFVDVFPSLTTSKLLTEHIREYFGNEQDMPAFMSTGAKVAGMLGSFGGAVLNKVLTSNIEEMARQFIVGETTKEAVKNLEKLRKDGFAAVVDVLGEATLSEEEAEVYTNTYLELLEALKKEQGSWKGLPGKGGDPGLDWGHAPKVNIAVKPTALFCLANPQDFEGSVVAILDRMRRIFKKVMELNGFLCIDMESYRHKEIILEVFRRLKLEYRDYPHLGIVLQAYLKDNDKDLDDLLAWAKEHKVQISVRLVKGAYWDYETVKAKQNDWEVPVWTIKAESDAAYERQARKILENHQICHFACASHNIRTISAVMEMARELNVPEDRYEFQVLYGMAEPVRKGILKVAGRIRLYAPYGNMVPGMGYLVRRLLENTANESFLRQSFAEDAQIERLLEDPAVTVERERAARAAKPKKERKGLGGLPPFNNEAMVDFTRADHRAAFPKHIAQVRTQLGKTYPLFINGKEVRTNDLIPTVNPNKPSEVLGQICQAGTTEVGDAIAAAKAAFPAWRDTDPRTRAEYLLKAAQAARKRLFELSAWQVLEIGKQWDQAYADVTEAIDFLEYYAREMIRLGQPQRVGHAPGELNHYFYEPKGVAAVIAPWNFPLAISMGMASAAIVTGNCVVFKPSGITSIIGWHLVELFREAGLPEGVFNFTPGRGSVMGDYLVDHPDISLIAFTGSMETGLRIIERAAKVHPGQANVKKIISEMGGKNAIIIDDDADLDEAVPHVLYSAFGFQGQKCSACSRVIVLDAVYDKFIERLVSMAKATKVGPSEDPANYMGAVADDKAMKSIKEYAEIGKREGHVLYESPVPAGEGYFVPMTIIGGIKPEHRIAQEEIFGPVLAVMRAKDFDQAIEWANSTQFALTGGIFSRSPEHLAKARREFRVGNLYINRNNTGALVERQPFGGARMSGVGTKAGGPDYLLHFMDPRVVTENTMRRGFAPIEEDDDWVD | 30.0 ± 13.0 | 4.7 ± 0.2
2 | GsPutA (Geobacter sulfurreducens PCA; A206W) (protein) MLNSELNTKIVNRGKEFFGSISGEKPSLFNKGAWMGKAMDWSMQNEQFKIQMFRFVDVFPSLTTSKLLTEHIREYFGNEQDMPAFMSTGAKVAGMLGSFGGAVLNKVLTSNIEEMARQFIVGETTKEAVKNLEKLRKDGFAAVVDVLGEATLSEEEAEVYTNTYLELLEALKKEQGSWKGLPGKGGDPGLDWGHAPKVNIAVKPTWLFCLANPQDFEGSVVAILDRMRRIFKKVMELNGFLCIDMESYRHKEIILEVFRRLKLEYRDYPHLGIVLQAYLKDNDKDLDDLLAWAKEHKVQISVRLVKGAYWDYETVKAKQNDWEVPVWTIKAESDAAYERQARKILENHQICHFACASHNIRTISAVMEMARELNVPEDRYEFQVLYGMAEPVRKGILKVAGRIRLYAPYGNMVPGMGYLVRRLLENTANESFLRQSFAEDAQIERLLEDPAVTVERERAARAAKPKKERKGLGGLPPFNNEAMVDFTRADHRAAFPKHIAQVRTQLGKTYPLFINGKEVRTNDLIPTVNPNKPSEVLGQICQAGTTEVGDAIAAAKAAFPAWRDTDPRTRAEYLLKAAQAARKRLFELSAWQVLEIGKQWDQAYADVTEAIDFLEYYAREMIRLGQPQRVGHAPGELNHYFYEPKGVAAVIAPWNFPLAISMGMASAAIVTGNCVVFKPSGITSIIGWHLVELFREAGLPEGVFNFTPGRGSVMGDYLVDHPDISLIAFTGSMETGLRIIERAAKVHPGQANVKKIISEMGGKNAIIIDDDADLDEAVPHVLYSAFGFQGQKCSACSRVIVLDAVYDKFIERLVSMAKATKVGPSEDPANYMGAVADDKAMKSIKEYAEIGKREGHVLYESPVPAGEGYFVPMTIIGGIKPEHRIAQEEIFGPVLAVMRAKDFDQAIEWANSTQFALTGGIFSRSPEHLAKARREFRVGNLYINRNNTGALVERQPFGGARMSGVGTKAGGPDYLLHFMDPRVVTENTMRRGFAPIEEDDDWVD | 65.0 ± 18.3 | 6.0 ± 0.2
